Assay: soluble on expression in E. coli; label from the status in PepcDB or PDB records

Which “soluble on expression in E. coli” value does the source give for “MTTEAPVRVEDKLYQNRYLVDVGNAHIKVKPHTKPSPQLLALLKVCPAHCYELNSNGQVEVTPDGCVECGTCRVLAEGGGDIEWSYPRGGYGVLFKFG” here?
The value was “not soluble”.

For “MGSDKIHHHHHHMTTPRRALIVIDVQNEYVTGDLPIEYPDVQSSLANIARAMDAARAAGVPVVIVQNFAPAGSPLFARGSNGAELHPVVSERARDHYVEKSLPSAFTGTDLAGWLAARQIDTLTVTGYMTHNCDASTINHAVHSGLAVEFLHDATGSVPYENSAGFASAEEIHRVFSVVLQSRFAAVASTDEWIAAVQGGTPLARGNIYASNQKARARRATA”, which “soluble on expression in E. coli” value is on record?
Its value is “not soluble”.

Which “soluble on expression in E. coli” value does the source give for “MMYQDVVRSRRSVRDFMPDVEIPKEELMAIIEEAMFAPNSTNLNSWRFLIVTEKEQKEALYEVSMQQPAVKGAAAVIILLGDLTAYTVANADEISAKAVAQGTMTEEIRQGINENVSWYYDVSEEQKREWLMLDQGLVAMQLMLSAKDRGYDTVAMSGFETEAVRKLFNIEDHLVNGLIIPIGKAQTPGFETVRRDVSEVVTWLD” here?
The value was “not soluble”.

For “GPGSMTVLRRMRLTFVGTGVSSAVPVIGHLTTDCACRDAIANPSGPNRRNNVSLLISLPFAEGKSGVEWHHVLIDCGKTFRSAYMRVLAPMRVQYVDALLITHGHADAMHCVEELCGMQAEAAARYAQSVSPSSLPSSAGRTLASAVVPRTLRRVPTFLTAPTLDQIAMVSPELVTQSFHIGAAPTTGTAYHSALAATADMTARSSSSAEVLSTVMDIFYMDDTKPQRMHVPFGPLSLAASAARGVNATDAASDLPFYSFPVEHGKGYISMAWVFGRGTAFKSRQTQQQQQGSCVVYISDVSHIPATSMAFLQDLVKIDVLVLDLLAEHGAPSASHYCADEAIPLVVALAPRRTYFVGMFCSLEHHRTNEAFARELAELKMRYRDELEVVVPGSSAPAVTDTDREKKLAFVNRVCSMELAYDGQELDMDA”, which “soluble on expression in E. coli” value is on record?
The value was “not soluble”.

With “PPGTVDKKMVEKCWKLMDKVVRLCQNPKLALKNSPPYILDLLPDTYQHLRTILSRYEGKMETLGENEYFRVFMENLMKKTKQTISLFKEGKERMYEENSQPRRNLTKLSLIFSHMLAELKGIFPSGLFQGDTFRITKADAAEFWRKAFGEKTIVPWKSFRQALHEVHPISSGLEAMALKSTIDLTCNDYISVFEFDIFTRLFQPWSSLLRNWNSLAVTHPGYMAFLTYDEVKARLQKFIHKPGSYIFRLSCTRLGQWAIGYVTADGNILQTIPHNKPLFQALIDGFREGFYLFPDGRNQNPDLTGLCEPTPQDHIKVTQEQYELYCEMGSTFQLCKICAENDKDVKIEPCGHLMCTSCLTSWQESEGQGCPFCRCEIKGTEPIVVDPF” as the sequence, how does the “soluble on expression in E. coli” value read?
Its value is “soluble”.

Which “soluble on expression in E. coli” value does the source give for “MDTLHQQLCTHSGSTSPKGLYLWGDVGRGKTFLMDLFYDALPQRGKLRLHFHRFMARVHQALKVHAGQRDPLKLIAKNLAKECKVLCFDEFFVSDIGDAMILAGLFETLFAQGVVLVATSNIPIERLYENGLARHRFLPCIALLQAHTQMLHLNGKQDHRLHALSAKPSAEALAATSHNIGLTGTLDFDGIFAALTQNSPSIKDGKLRVCQREISVIRATTENQLPSVAWFDFNALCDGPRSQLDYIEIASRFKVLMLSNVPRLGGEVKGWIRARGTEDGTGDNQAATTGERQLSYAVNDDPARRFISLIDELYDQDVSLYLSCDVPLTELYQGGALSFEFRRTYSRLIEMSHSAAMKLTY” here?
Its value is “not soluble”.

For “MGSDKIHHHHHHMEEINKYIQNSSETGGEIYNLIEELFPICRSITGNGVRKTMDIIRKHIPLEIHEVKSGTKVFDWTVPKEWNIKDAYVRNSKGEKVIDFKENNLHVMSYSVPVHKTMTLDELKPYLHTIPGNKDRIPYLTSYYKENWGFSLTQNKFDELCDDDYEVVIDSSLEDGSLTYGEYYIRGELEEEILLTTYTCHPSMCNDNLSGVALITFIAKALSKLKTKYSYRFLFAPETIGSITWLSRNEDKLKNIKMGLVATCVGDAGIKNYKRTKFGDAEIDKIVEKVLMHCGSEYYVADFFPWGSDERQFSSPGINLSVGSLMRSCYGFDGYHTSADNLCYMNKDGLADSYKTYLEVIYTIENNRTYLNLNPKCEPQLGKRGIYRMIGGGSDYPFDEFAMFWVLNMSDGKNSLLDIAYKSGMEFRRIKYAADALYRVELLKLV”, which “soluble on expression in E. coli” value is on record?
The value was “not soluble”.

For “MGSDKIHHHHHHMAVKMIKVHGSGNDFYLLDQTQFQAPLSDADLKQLAINICKRDGAGLYDGADGVLVVDKSEHPQVLGRMRVINADGTEASMCGNGLRTVARYLGTQNSQEDFRVQTMYADLKVQAVADFAAHVPAYSVEISPVTFDAQTLGMHANNDATTIINEKIPALSADLKFSAVAVPNPHLIAFVDHDTLVGPELGRIGEWMNDGKNQIFPDGVNVSFVEVLGPNSIFVRTFERGVGFTNACGTAMSASSLMYVLLHQESTDFNQEIHVTNPGGMVKTVVHQGADEEYWMELIGNATFVRIVTLPLEDALQGDYSPVTATETGEQVAYEDFVANLAKA”, which “soluble on expression in E. coli” value is on record?
The value was “not soluble”.

For “MATGTATEKPKIVWNEGRHRFETDDHEAFIEYKMKNDGKVMDLVRTFVPPSKAGLGLASHLCVAAFEHASEHSFSIIPTCSYVSVYISSFLKKLR”, which “soluble on expression in E. coli” value is on record?
Its value is “not soluble”.

For “MSYITKQDKVIAEAIEREFQRQNSNIELIASENFVSEAVMEAQGSVLTNKYAEGYPGRRYYGGCEFVDVTESIAIDRAKALFGAEHVNVQPHSGSQANMAVYLVALEMGDTVLGMNLSHGGHLTHGAPVNFSGKFYNFVEYGVDKDTERINYDEVRKLALEHKPKLIVAGASAYSRTIDFKKFKEIADEVNAKLMVDMAHIAGLVAAGLHPNPVEYADFVTTTTHKTLRGPRGGMILCKEEYKKDIDKTIFPGIQGGPLEHVIAAKAVAFGEALENNFKTYQQQVVKNAKVLAEALINEGFRIVSGGTDNHLVAVDVKGSIGLTGKEAEETLDSVGITCNKNTIPFDQEKPFVTSGIRLGTPAATTRGFDEKAFEEVAKIISLALKNSKDEEKLQQAKERVAKLTAEYPLYQ”, which “soluble on expression in E. coli” value is on record?
The value was “not soluble”.

Which “soluble on expression in E. coli” value does the source give for “MGLLIDGVWHDQWYDTKSTGGSFKRQDAKFRNWITHDGSAGPSGTGGFTPDSGRYHLYISHACPWAHRTMIFRTLKGLEDHITISAVHPDMLGEGWTFEPDDNGATGDTLYNSAFARDIYTRADPRFTGRVTVPILWDKQRETIVSNESSEIIRMFNAAFNGLTGNSDDYWPEPLRDAIAPVNERIYDTFNNGVYKAGFATTQQAYDAAIVPLFDTLDWLEERLSHNRYLMGDQLTEADWRLFTTLVRFDPVYHLHFKCNRKRIVDYPNLWGYTRELYQTPGVADTVNFDHIVRHYHYSHETINPNRIIPINPVLDFHRPHGRGLEHHHHHH” here?
Its value is “soluble”.

With “MNNNDIEYNAPSEIKYIDVVNTYDLEEEASKVVPHGGFNYIAGASGDEWTKRANDRAWKHKLLYPRLAQDVEAPDTSTEILGHKIKAPFIMAPIAAHGLAHTTKEAGTARAVSEFGTIMSISAYSGATFEEISEGLNGGPRWFQIYMAKDDQQNRDILDEAKSDGATAIILTADSTVSGNRDRDVKNKFVYPFGMPIVQRYLRGTAEGMSLNNIYGASKQKISPRDIEEIAGHSGLPVFVKGIQHPEDADMAIKRGASGIWVSNHGARQLYEAPGSFDTLPAIAERVNKRVPIVFDSGVRRGEHVAKALASGADVVALGRPVLFGLALGGWQGAYSVLDYFQKDLTRVMQLTGSQNVEDLKGLDLFDNPYGYEY” as the sequence, how does the “soluble on expression in E. coli” value read?
The value was “soluble”.

With “LSSPADSYNEGVKLQPQEISPPPTANLDRSNDKVYENVTGLVKAVIEMSSKIQPAPPEEYVPMVKEVGLALRTLLATVDETIPLLPASTHREIEMAQKLLNSDLGELINKMKLAQQYVMTSLQQEYKKQMLTAAHALAVDAKNLLDVIDQARLKMLGQTRPH” as the sequence, how does the “soluble on expression in E. coli” value read?
Its value is “soluble”.

Which “soluble on expression in E. coli” value does the source give for “MEKLRVGIVFGGKSAEHEVSLQSAKNIVDAIDKSRFDVVLLGIDKQGQWHVSDASNYLLNADDPAHIALRPSATSLAQVPGKHEHQLIDAQNGQPLPTVDVIFPIVHGTLGEDGSLQGMLRVANLPFVGSDVLASAACMDKDVTKRLLRDAGLNIAPFITLTRANRHNISFAEVESKLGLPLFVKPANQGSSVGVSKVTSEEQYAIAVDLAFEFDHKVIVEQGIKGREIECAVLGNDNPQASTCGEIVLTSDFYAYDTKYIDEDGAKVVVPAAIAPEINDKIRAIAVQAYQTLGCAGMARVDVFLTPENEVVINEINTLPGFTNISMYPKLWQASGLGYTDLITRLIELALERHAADNALKTTM” here?
The value was “soluble”.

Which “soluble on expression in E. coli” value does the source give for “MKVLPMLLALAVPGLCWAEDPQTFEGAGVVFEVQVEKNLVDIDHRLYRLPNSTVRNGMPSLFQVKPGSVVSYSGTVSQPWSTITDIYIHKQMSEQELAEMIEKEQPRQDGEEQPR” here?
Its value is “not soluble”.

With “DIQMTQSPSSLSASVGDRVTITCRASQDIPRSISGYVAWYQQKPGKAPKLLIYWGSYLYSGVPSRFSGSGSGTDFTLTISSLQPEDFATYYCQQHYTTPPTFGQGTKVEIKRTVAAPSVFIFPPSDEQLKSGTASVVCLLNNFYPREAKVQWKVDNALQSGNSQESVTEQDSKDSTYSLSSTLTLSKADYEKHKVYACEVTHQGLSSPVTKSFNRGEC” as the sequence, how does the “soluble on expression in E. coli” value read?
Its value is “soluble”.

For “MITELRPNPYQPRKHFNKEAIQELSASIKEHGILQPLIARKSIKGYEIVAGERRYRAAKEAGLEKVPAVVRQLNEQQMMEFALLENLQREDLNPMEEAMAYQMLMNELNVTQEQLAKCLGKSRPYIANYTRLLSLPSFVQDMIANGQLSMAHGRTLLTIKDEEQLKSLLKRIEKEGLNVRQLEKIVQEINQSVSRETKQVKKERNIFFIERETFLREKFGTDVKIKETKKEKGKIEIEFFNKEDLNRILELLAQKN”, which “soluble on expression in E. coli” value is on record?
The value was “not soluble”.

With “MAHHHHHHMLTLNRRDKEICQELIRKNFTLSQIQSYNEPEYSGWVSRRRRVSNIFVWELNWLATSGNYLLCFSQKKDSCHPIKIMYLPEAIIRRCSMKEECCVGHPFVLEIVPCLHFVREEKGLFPVKPHEVHFSFENVEDLCGTIAFLAKISARHVRTASITFGPPTRVNHRIHLRAARGKNDFGLELLPLPMREWLLRQGITCAEMAGNETTALNCATTLYEVQMQRGMLEDLPPISEEGVTEKRYEDKAGVPPFPLPSENEGGALEPLLSAGDPESLFSDWERLDGGSQGEVFKAVRVVDGRKVAIKRITVRGDHKVPQSLVKEMSLLKALHHPNIVTLYDCYRKGKHLFLAMELMDGGKLTDLLIPSEGEPVEFTEAQLATLIREVLRALRCLHNARCVHRDVKSDNVLLSSNGEVKLGDFGFATLLTSPGGMRRTLVGTPYWMAPEVAGGKAYNDKADVWSAGILFLEMCDGQPPLMGMNPMRALLTVSTGPPPVMRTANRWSSLCREFASFLLVKDPARRPSVDDALRHPFIVKKAEPTCRFVATILQRRK” as the sequence, how does the “soluble on expression in E. coli” value read?
The value was “soluble”.

Source: the DeepSol protein solubility set
